Experiments:
U2AF65 = U2AF65 (human, UniProt P26368 1-475); experiment: EMSA
U2AF65;U2AF35 = U2AF65;U2AF35 (human;human, UniProt P26368;Q01081 1-475;1-240, |); experiment: EMSA
Sequence of U2AF65;U2AF35 (P26368 whole entry, chain 1 of 2): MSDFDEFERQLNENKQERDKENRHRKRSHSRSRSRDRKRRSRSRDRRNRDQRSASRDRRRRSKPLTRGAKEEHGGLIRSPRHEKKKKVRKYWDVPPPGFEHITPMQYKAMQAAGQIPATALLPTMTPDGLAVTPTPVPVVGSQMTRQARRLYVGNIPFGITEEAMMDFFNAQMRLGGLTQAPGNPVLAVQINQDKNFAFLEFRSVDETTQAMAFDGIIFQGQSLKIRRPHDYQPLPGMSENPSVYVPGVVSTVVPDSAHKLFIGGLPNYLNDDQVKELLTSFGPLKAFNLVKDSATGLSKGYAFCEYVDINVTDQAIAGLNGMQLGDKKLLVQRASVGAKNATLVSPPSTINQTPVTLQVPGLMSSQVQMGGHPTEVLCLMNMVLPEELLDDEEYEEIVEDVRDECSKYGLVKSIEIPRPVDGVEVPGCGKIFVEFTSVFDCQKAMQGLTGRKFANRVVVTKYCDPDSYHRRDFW
Sequence of U2AF65;U2AF35 (Q01081 whole entry, chain 2 of 2): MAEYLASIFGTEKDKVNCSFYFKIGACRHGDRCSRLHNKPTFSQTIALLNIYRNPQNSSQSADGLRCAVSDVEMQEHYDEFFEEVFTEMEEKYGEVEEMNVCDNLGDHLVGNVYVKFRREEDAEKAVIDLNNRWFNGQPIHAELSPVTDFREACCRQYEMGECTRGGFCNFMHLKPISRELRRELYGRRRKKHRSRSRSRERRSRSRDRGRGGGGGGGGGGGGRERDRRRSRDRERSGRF

Sequence of U2AF65 (P26368 whole entry, one chain of several): as the sequence (P26368 whole entry, chain 1 of 2) above

GGGAGACAGGCUUACGCAUUCGUCUAUCUUUCGCAUAGUUUGGUCCA (ssRNA) [FECH mutant (PT, E+1 G>U)]: no binding (U2AF65); no binding (U2AF65;U2AF35).

Source: paper PMC3105431
